For five proteins, Kd, koff and kon results are on record in article PMC2852398, “Metal-Free ALS Variants of Dimeric Human Cu,Zn-Superoxide Dismutase Have Enhanced Populations of Monomeric Species” (PLoS ONE, 2010).

The data set deals with the molecule itself. As to the kind of experiment: global analysis of urea unfolding and refolding kinetics (manual-mixing far-UV CD at 230 nm); kinetic traces at 0.25 to 8.75 M urea and 1 to 40 µM protein fit together to 2U = 2M = N2; constants in the absence of urea; step: dimer (N2) to folded monomers (2M); monomer unfolding rate fixed to that of the stable monomeric variants; apo protein; 10 mM potassium phosphate, 1 mM K2EDTA, pH 7.2, 20°C.

B1: apo A4V SOD1 in the AS-SOD1 (C6A/C111S) background (enzyme)
chain: not shown
notes: human Cu,Zn superoxide dismutase (SOD1), 153-residue subunit; Apo (metal-free) form with the intra-subunit C57-C146 disulfide bond intact; source: BL21-Gold(DE3) PLysS cells, purified (anion exchange QSepharose XL and/or gel filtration Sephacryl 200HR)
On to B1, for which binding was put at a Kd of 123 nM; the koff (as a rule, a measure of how fast the partners let go of each other) amounted to 0.0223 s⁻¹; the on-rate constant (kon) – broadly, the second-order rate constant of association – amounted to 180000 M⁻¹ s⁻¹.

B2: apo L38V SOD1 in the AS-SOD1 (C6A/C111S) background (enzyme)
chain: not shown
notes: as for B1
On to B2, for which the Kd (usually the concentration at which binding is half-saturated) is 4.6 nM, the dissociation rate constant (koff) is 0.000557 s⁻¹ and the association rate constant (kon) was determined as 120000 M⁻¹ s⁻¹.

B3: apo L106V SOD1 in the AS-SOD1 (C6A/C111S) background (enzyme)
chain: not shown
notes: as for B1
As to B3, the Kd is 21 nM, the dissociation rate constant (koff) amounted to 0.00151 s⁻¹ and the on-rate (kon) came out at 73000 M⁻¹ s⁻¹.

B4: apo S134N SOD1 in the AS-SOD1 (C6A/C111S) background (enzyme)
chain: not shown
notes: as for B1
B4 came in with a Kd of 1.1 nM, a koff of 0.000222 s⁻¹ and an association rate constant (kon) of 200000 M⁻¹ s⁻¹.

B5: apo-AS-SOD1 (human Cu,Zn superoxide dismutase, C6A/C111S pseudo-wild-type background, metal-free) (enzyme)
chain: not shown
notes: human Cu,Zn superoxide dismutase (SOD1), 153-residue subunit; Apo (metal-free) form with the intra-subunit C57-C146 disulfide bond intact; also called WT; WT SOD1; source: BL21-Gold(DE3) PLysS cells, purified (anion exchange QSepharose XL and/or gel filtration Sephacryl 200HR)
B5 had a Kd of 0.87 nM, an off-rate constant (koff) of 0.000745 s⁻¹ and a kon of 860000 M⁻¹ s⁻¹.
